# Assay results reported in patent US20180273635A1 (Zymeworks, published 2018).
# Positions count from the first letter of the chain named. Numbers in names are those of the source.
# B1: variant 12489 (antibody, human IgG1, kappa)
# heavy: EVQLVESGGGLVQPGGSLRLSCAASGFTFTDYTMDWVRQAPGKGLEWVADVNPNSGMSIYNQRFKGRFTLSVDRSKNTLYLQMNSLRAEDTAVYYCARNLGPSFYFDYWGQGTLVTVSSASTKGPSVFPLAPSSKSTSGGTAALGCLVKDYFPEPVTVSWNSGALTSGVHTFPAVLQSSGLYSLSSVVTVPSSSLGTQTYICNVNHKPSNTKVDKKVEPKSCDKTHTCPPCPAPELLGGPSVFLFPPKPKDTLMISRTPEVTCVVVDVSHEDPEVKFNWYVDGVEVHNAKTKPREEQYNSTYRVVSVLTVLHQDWLNGKEYKCKVSNKALPAPIEKTISKAKGQPREPQVYVYPPSRDELTKNQVSLTCLVKGFYPSDIAVEWESNGQPENNYKTTPPVLDSDGSFALVSKLTVDKSRWQQGNVFSCSVMHEALHNHYTQKSLSLSPG
# light: not shown
# chain: not shown
# notes: OA pertuzumab variant, HC G56M (Kabat); also called v12489
# B2: variant 12482 (antibody, human IgG1, kappa)
# heavy: B1 heavy with T30F, M57G
# light: not shown
# chain: not shown
# notes: OA pertuzumab variant, HC T30F (Kabat); also called v12482
# B3: variant 12536 (antibody, human IgG1, kappa)
# heavy: B1 heavy with M57G
# light: not shown
# chain: not shown
# notes: OA pertuzumab variant, LC Y96G (Kabat); also called v12536
# B4: variant 12540 (antibody, human IgG1, kappa)
# heavy: B1 heavy with M57G
# light: not shown
# chain: not shown
# notes: OA pertuzumab variant, LC Y96V (Kabat); also called v12540
# B5: variant 12514 (antibody, human IgG1, kappa)
# heavy: B1 heavy with M57G, S103W
# light: not shown
# chain: not shown
# notes: OA pertuzumab variant, HC S99W (Kabat); also called v12514
# B6: variant 12497 (antibody, human IgG1, kappa)
# heavy: B1 heavy with M57G, Q62R
# light: not shown
# chain: not shown
# notes: OA pertuzumab variant, HC Q61R (Kabat); also called v12497
# B7: variant 12503 (antibody, human IgG1, kappa)
# heavy: B1 heavy with M57G, S75H
# light: not shown
# chain: not shown
# notes: OA pertuzumab variant, HC S74H (Kabat); also called v12503
# B8: variant 12520 (antibody, human IgG1, kappa)
# heavy: B1 heavy with T30R, M57Y
# light: not shown
# chain: not shown
# notes: also called v12520
# B9: variant 12538 (antibody, human IgG1, kappa)
# heavy: B1 heavy with M57G
# light: not shown
# chain: not shown
# notes: OA pertuzumab variant, LC Y49W (Kabat); also called v12538
# B10: variant 12490 (antibody, human IgG1, kappa)
# heavy: B1 heavy with M57Y
# light: not shown
# chain: not shown
# notes: OA pertuzumab variant, HC G56Y (Kabat); also called v12490
# B11: variant 12478 (antibody, human IgG1, kappa)
# heavy: B1 heavy with T30Y, M57G
# light: not shown
# chain: not shown
# notes: OA pertuzumab variant, HC T30Y (Kabat); also called v12478
# B12: variant 12479 (antibody, human IgG1, kappa)
# heavy: B1 heavy with T30N, M57G
# light: not shown
# chain: not shown
# notes: OA pertuzumab variant, HC T30N (Kabat); also called v12479
# B13: variant 12480 (antibody, human IgG1, kappa)
# heavy: B1 heavy with T30Q, M57G
# light: not shown
# chain: not shown
# notes: OA pertuzumab variant, HC T30Q (Kabat); also called v12480
# B14: variant 12502 (antibody, human IgG1, kappa)
# heavy: B1 heavy with M57G, S75W
# light: not shown
# chain: not shown
# notes: OA pertuzumab variant, HC S74W (Kabat); also called v12502
# B15: variant 12506 (antibody, human IgG1, kappa)
# heavy: B1 heavy with M57G, K76W
# light: not shown
# chain: not shown
# notes: OA pertuzumab variant, HC K75W (Kabat); also called v12506
# B16: variant 12504 (antibody, human IgG1, kappa)
# heavy: B1 heavy with M57G, S75A
# light: not shown
# chain: not shown
# notes: OA pertuzumab variant, HC S74A (Kabat); also called v12504
# B17: variant 12505 (antibody, human IgG1, kappa)
# heavy: B1 heavy with M57G, K76E
# light: not shown
# chain: not shown
# notes: OA pertuzumab variant, HC K75E (Kabat); also called v12505
# B18: variant 12491 (antibody, human IgG1, kappa)
# heavy: B1 heavy with M57F
# light: not shown
# chain: not shown
# notes: OA pertuzumab variant, HC G56F (Kabat); also called v12491
# B19: variant 9996 (antibody)
# heavy: B1 heavy with T30A, A49G, M57G, L70F
# light: not shown
# Fc: not shown
# notes: OA format; also called v9996
# B20: Variant 12490 (antibody, human IgG1, kappa)
# heavy: B1 heavy with M57Y
# light: not shown
# chain: not shown
# notes: OA (one-armed) format; clones 7825, 1811, 4372; also called v12490
# B21: Variant 12482 (antibody, human IgG1, kappa)
# heavy: B1 heavy with T30F, M57G
# light: not shown
# chain: not shown
# notes: OA (one-armed) format; clones 7817, 1811, 4372; also called v12482
# B22: Variant 12505 (antibody, human IgG1, kappa)
# heavy: B1 heavy with M57G, K76E
# light: not shown
# chain: not shown
# notes: OA (one-armed) format; clones 7843, 1811, 4372; also called v12505
# B23: Variant 12479 (antibody, human IgG1, kappa)
# heavy: B1 heavy with T30N, M57G
# light: not shown
# chain: not shown
# notes: OA (one-armed) format; clones 7814, 1811, 4372; also called v12479
# B24: Variant 12480 (antibody, human IgG1, kappa)
# heavy: B1 heavy with T30Q, M57G
# light: not shown
# chain: not shown
# notes: OA (one-armed) format; clones 7815, 1811, 4372; also called v12480
# B25: Variant 12502 (antibody, human IgG1, kappa)
# heavy: B1 heavy with M57G, S75W
# light: not shown
# chain: not shown
# notes: OA (one-armed) format; clones 7840, 1811, 4372; also called v12502
# B26: Variant 12536 (antibody, human IgG1, kappa)
# heavy: B1 heavy with M57G
# light: not shown
# chain: not shown
# notes: OA (one-armed) format; clones 3057, 7917, 4372; also called v12536
# B27: Variant 12514 (antibody, human IgG1, kappa)
# heavy: B1 heavy with M57G, S103W
# light: not shown
# chain: not shown
# notes: OA (one-armed) format; clones 7852, 1811, 4372; also called v12514
# B28: Variant 12478 (antibody, human IgG1, kappa)
# heavy: B1 heavy with T30Y, M57G
# light: not shown
# chain: not shown
# notes: OA (one-armed) format; clones 7813, 1811, 4372; also called v12478
# B29: Variant 12506 (antibody, human IgG1, kappa)
# heavy: B1 heavy with M57G, K76W
# light: not shown
# chain: not shown
# notes: OA (one-armed) format; clones 7844, 1811, 4372; also called v12506
# B30: Variant 12538 (antibody, human IgG1, kappa)
# heavy: B1 heavy with M57G
# light: not shown
# chain: not shown
# notes: OA (one-armed) format; clones 3057, 7919, 4372; also called v12538
# B31: Variant 12491 (antibody, human IgG1, kappa)
# heavy: B1 heavy with M57F
# light: not shown
# chain: not shown
# notes: OA (one-armed) format; clones 7826, 1811, 4372; also called v12491
# Target: T1, Recombinant human HER2 (human, UniProt P04626 23-652)
# T1 construct: extracellular domain; analyte of the SPR assays; also called HER2 ECD; ECD2 of HER2
# Test: SPR, pre-SEC; ratio to WT v10013;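 also: SPR on Biacore T200 at 25 °C, constructs captured via anti-human Fc on CM5 chip, HER2 ECD as analyte, 1:1 Langmuir global fit, after protein A purification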
# Method: (§1) The affinity towards HER2 ECD of the samples was measured by SPR on a Biacore T200 as follows. Between 2000 and 4000 RU of anti-human Fc injected at concentration between 5 and 10 μg/ml was immobilized on a CM5 chip using standard amine coupling. Antigen-binding constructs were captured on the anti-human Fc (injected at concentration at 0.51 microg/mL in PBST, 1 min at 10 microl/min) at response levels ranging from 120-270 RU. […] HER2 dilutions were analyzed in duplicates. Sensograms were fit globally to a 1: 1 Langmuir binding model, using the software provided with the Biacore T200. All experiments were conducted at 25° C.
# (§2) The affinity of antigen-binding constructs in OA format was determined by SPR following protein A purification. […] Antigen-binding constructs in FSA format were purified by protein A affinity and SEC prior to assessment of affinity by SPR.
row,"Ka, mut/Ka, WT",Binder
1,1.4,B1
2,2.5,B2
3,4.1,B3
4,1.6,B4
5,5.8,B5
6,1.4,B6
7,1.3,B7
8,3.6,B8
9,4.2,B9
10,2.5,B10
11,3.5,B11
12,3.9,B12
13,4.6,B13
14,8.2,B14
15,30.6,B15
16,1.1,B16
17,4.2,B17
18,2.1,B18

# Target: T1, Recombinant human HER2
# Test: SPR, post-SEC; ratio to WT v10013
# Method: as §1, §2
row,"Ka, mut/Ka, WT",Binder
1,1.6,B1
2,2.9,B2
3,4,B3
4,1.9,B4
5,4.5,B5
6,1.6,B6
7,0.8,B7
8,3.1,B8
9,4.8,B9
10,2.7,B10
11,3.6,B11
12,4.7,B12
13,4.7,B13
14,5.3,B14
15,30.6,B15
16,0.8,B16
17,3.7,B17
18,2.1,B18

# Target: T1, Recombinant human HER2
# Test: SPR, variant captured on anti-human Fc, HER2 flowed, 25 C, pre-SEC;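 also: HER2 extracellular domain binding on Biacore T200, CM5 chip with amine-coupled anti-human Fc, duplicate antigen dilutions, global 1:1 Langmuir fit, measured after protein A purification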
# Method: as §1, §2
row,Kd,Binder
1,2 nM,B19
2,14 nM,B1
3,7.7 nM,B2
4,4.8 nM,B3
5,12 nM,B4
6,3.4 nM,B5
7,14 nM,B6
8,15 nM,B7
9,5.4 nM,B8
10,4.7 nM,B9
11,7.7 nM,B10
12,5.6 nM,B11
13,5 nM,B12
14,4.2 nM,B13
15,2.4 nM,B14
16,0.64 nM,B15
17,18 nM,B16
18,4.6 nM,B17
19,9.1 nM,B18

# Target: T2, Recombinant human HER2 (human, UniProt P04626 23-652)
# T2 construct: extracellular domain; Analyte of the SPR assays; also called HER2 ECD; ECD2 of HER2
# Test: calculated from the SPR Ka ratio to WT, -RTln(Ka,mut/Ka,WT), 298 K
row,ΔΔG,Binder
1,-0.6 kcal/mol,B20
2,-0.6 kcal/mol,B21
3,-0.8 kcal/mol,B22
4,-0.9 kcal/mol,B23
5,-0.9 kcal/mol,B24
6,-1 kcal/mol,B25
7,-0.8 kcal/mol,B26
8,-0.9 kcal/mol,B27
9,-0.8 kcal/mol,B28
10,-2 kcal/mol,B29
11,-0.9 kcal/mol,B30
12,-0.4 kcal/mol,B31

# Target: T1, Recombinant human HER2
# Test: SPR, variant captured on anti-human Fc, HER2 flowed, 25 C, post-SEC
# Method: as §1, §2
row,Kd,Binder
1,1.9 nM,B19
2,13 nM,B1
3,7.3 nM,B2
4,5.2 nM,B3
5,11 nM,B4
6,4.6 nM,B5
7,13 nM,B6
8,25 nM,B7
9,6.6 nM,B8
10,4.4 nM,B9
11,7.8 nM,B10
12,5.8 nM,B11
13,4.4 nM,B12
14,4.4 nM,B13
15,3.9 nM,B14
16,0.68 nM,B15
17,27 nM,B16
18,5.7 nM,B17
19,10 nM,B18

# Target: T2, Recombinant human HER2
# Test: SPR post-SEC (value taken over from Table 5); Ka ratio to WT v10013
# Method: as §1, §2
row,"Ka, mut/Ka, WT",Binder
1,2.7 fold,B20
2,2.9 fold,B21
3,3.7 fold,B22
4,4.7 fold,B23
5,4.7 fold,B24
6,5.3 fold,B25
7,4 fold,B26
8,4.5 fold,B27
9,3.6 fold,B28
10,30.6 fold,B29
11,4.8 fold,B30
12,2.1 fold,B31
